Laboratory results from doi:10.1101/306175.

Tests used:
[1] = biological target: DNA polymerase I Klenow Fragment (KF) (E. coli, UniProt P00582 324-928, D424A); test: single-molecule FRET
[2] = biological target: Pol β "wild-type" (unlabelled) (UniProt P06746 1-335, C239S;C267S;V303C); test: single-molecule FRET titration

B1: 1-nt gapped DNA bending sensor (Cy3B/Cy5) (dsDNA)
DNA 1: CCTCATTCTTCGTCCCATTACCATACATCC
DNA 2: CCACGAAGCAGGCTCTACTCTCTAAGGATGTATGGTAATGGGACGAAGAATGAGG
DNA 3: TAGAGAGTAGAGCCTGCTTCGTGG
modifications: primer 3' dideoxy-terminated (printed TCCH); 5'-phosphate on downstream strand
B1 was tested, and the binding result [1] was “binds” and the Kd [2] was 19 ± 2 nM.
